Holding throughout (experiment): SPR
The target of assay [1] is bifucosylated A330W E269M KiH Rituximab IgG1 (human).
The target of assay [2] is monofucosylated A330W E269I KiH Rituximab IgG1 (human).
In assay [3] the target is bifucosylated A330W E269I KiH Rituximab IgG1 (human).
For assay [4], the target named is monofucosylated A330W E269M KiH Rituximab IgG1 (human).
Assay [5] has as its target monoglycosylated monofucosylated IgG (human).
In assay [6] the target is afucosylated A330W E269I KiH Rituximab IgG1 (human).
Assay [7] has as its target afucosylated agalactosylated KiH-A330W anti-DENV2 E protein IgG1 (C10) (human).
Assay [8] has as its target monoglycosylated bifucosylated IgG (human).

“soluble human FcγRIIIA-F158 ectodomain (from UniProt P08637 17-208) (receptor)”: the Kd – broadly, the equilibrium constant for the complex coming apart – was determined as 1480 nM in assay [1]; 698 nM in assay [2]; 2070 nM in assay [3]; 119 nM in assay [4]; 554 nM in assay [5]; 159 nM in assay [6]. The Kd in assay [7] turned out to be 39 nM; in assay [8], 1640 nM.
